Tests used:
[1] = biological target: T1, GFP-GBF1 (wild type) immunoprecipitated from cells expressing active SrcEG (tyrosine-phosphorylated GBF1) (human, UniProt Q92538-1 1-1859, phosphotyrosine at Y876 and Y898 and at eight other tyrosines (10 in all by mass spectrometry; positions 317, 377, 515 and five tyrosines in HDS2/3 are named)); assay: cell-based or functional assay
[2] = biological target: T1, GFP-GBF1 (wild type) immunoprecipitated …; assay: pull-down; in vitro Arf1 binding assay: NGFP-GBF1 immunoprecipitated on GFP-trap agarose beads from cells expressing SrcKM or SrcEG, incubated with 4 mg lysate of HEK293T cells expressing Arf1-V5 (pre-cleared) for 1 hr at 4°C in the presence of GDP; washed three times with HKMT buffer (20 mM HEPES pH 7.4, 0.1 M KCl, 1 mM MgCl2, 0.5% Triton X-100); bound Arf1 by immunoblot; conditions: one partner purified
[3] = biological target: T2, GFP-GBF1-Y876F immunoprecipitated from cells expressing active SrcEG (human, UniProt Q92538-1 1-1859, Y876F); assay: pull-down; in vitro Arf1 binding assay: NGFP-GBF1 (wild type or mutant) immunoprecipitated on GFP-trap agarose beads from cells expressing SrcKM or SrcEG, incubated with 10 µg recombinant Arf1-del17 protein for 1 hr at 4°C in the presence of GDP; washed three times with HKMT buffer (20 mM HEPES pH 7.4, 0.1 M KCl, 1 mM MgCl2, 0.5% Triton X-100); bound Arf1 by western blot; conditions: both partners purified
T2 construct: GBF1, human, with Y876F; source: expressed in cells coexpressing active SrcEG, immunoprecipitated on GFP-trap agarose beads; not shown: GFP, N-terminal, kept

[4] = biological target: T3, GFP-GBF1-Y898F immunoprecipitated from cells expressing active SrcEG (human, UniProt Q92538-1 1-1859, Y898F); assay: as above; conditions: both partners purified
T3 construct: GBF1, human, with Y898F; source: expressed in cells coexpressing active SrcEG, immunoprecipitated on GFP-trap agarose beads; not shown: GFP, N-terminal, kept

[5] = biological target: T4, GFP-GBF1-Y876.898F double mutant immunoprecipitated from cells expressing active SrcEG (human, UniProt Q92538-1 1-1859, Y876F | Y898F); assay: as above; conditions: both partners purified
T4 construct: GBF1, human, with Y876F and Y898F; source: expressed in cells coexpressing active SrcEG, immunoprecipitated on GFP-trap agarose beads; not shown: GFP, N-terminal, kept
T4 sequence (Q92538 other isoform, or with tags, fused parts or gaps Y876F | Y898F | Y876F | Y898F | mutant): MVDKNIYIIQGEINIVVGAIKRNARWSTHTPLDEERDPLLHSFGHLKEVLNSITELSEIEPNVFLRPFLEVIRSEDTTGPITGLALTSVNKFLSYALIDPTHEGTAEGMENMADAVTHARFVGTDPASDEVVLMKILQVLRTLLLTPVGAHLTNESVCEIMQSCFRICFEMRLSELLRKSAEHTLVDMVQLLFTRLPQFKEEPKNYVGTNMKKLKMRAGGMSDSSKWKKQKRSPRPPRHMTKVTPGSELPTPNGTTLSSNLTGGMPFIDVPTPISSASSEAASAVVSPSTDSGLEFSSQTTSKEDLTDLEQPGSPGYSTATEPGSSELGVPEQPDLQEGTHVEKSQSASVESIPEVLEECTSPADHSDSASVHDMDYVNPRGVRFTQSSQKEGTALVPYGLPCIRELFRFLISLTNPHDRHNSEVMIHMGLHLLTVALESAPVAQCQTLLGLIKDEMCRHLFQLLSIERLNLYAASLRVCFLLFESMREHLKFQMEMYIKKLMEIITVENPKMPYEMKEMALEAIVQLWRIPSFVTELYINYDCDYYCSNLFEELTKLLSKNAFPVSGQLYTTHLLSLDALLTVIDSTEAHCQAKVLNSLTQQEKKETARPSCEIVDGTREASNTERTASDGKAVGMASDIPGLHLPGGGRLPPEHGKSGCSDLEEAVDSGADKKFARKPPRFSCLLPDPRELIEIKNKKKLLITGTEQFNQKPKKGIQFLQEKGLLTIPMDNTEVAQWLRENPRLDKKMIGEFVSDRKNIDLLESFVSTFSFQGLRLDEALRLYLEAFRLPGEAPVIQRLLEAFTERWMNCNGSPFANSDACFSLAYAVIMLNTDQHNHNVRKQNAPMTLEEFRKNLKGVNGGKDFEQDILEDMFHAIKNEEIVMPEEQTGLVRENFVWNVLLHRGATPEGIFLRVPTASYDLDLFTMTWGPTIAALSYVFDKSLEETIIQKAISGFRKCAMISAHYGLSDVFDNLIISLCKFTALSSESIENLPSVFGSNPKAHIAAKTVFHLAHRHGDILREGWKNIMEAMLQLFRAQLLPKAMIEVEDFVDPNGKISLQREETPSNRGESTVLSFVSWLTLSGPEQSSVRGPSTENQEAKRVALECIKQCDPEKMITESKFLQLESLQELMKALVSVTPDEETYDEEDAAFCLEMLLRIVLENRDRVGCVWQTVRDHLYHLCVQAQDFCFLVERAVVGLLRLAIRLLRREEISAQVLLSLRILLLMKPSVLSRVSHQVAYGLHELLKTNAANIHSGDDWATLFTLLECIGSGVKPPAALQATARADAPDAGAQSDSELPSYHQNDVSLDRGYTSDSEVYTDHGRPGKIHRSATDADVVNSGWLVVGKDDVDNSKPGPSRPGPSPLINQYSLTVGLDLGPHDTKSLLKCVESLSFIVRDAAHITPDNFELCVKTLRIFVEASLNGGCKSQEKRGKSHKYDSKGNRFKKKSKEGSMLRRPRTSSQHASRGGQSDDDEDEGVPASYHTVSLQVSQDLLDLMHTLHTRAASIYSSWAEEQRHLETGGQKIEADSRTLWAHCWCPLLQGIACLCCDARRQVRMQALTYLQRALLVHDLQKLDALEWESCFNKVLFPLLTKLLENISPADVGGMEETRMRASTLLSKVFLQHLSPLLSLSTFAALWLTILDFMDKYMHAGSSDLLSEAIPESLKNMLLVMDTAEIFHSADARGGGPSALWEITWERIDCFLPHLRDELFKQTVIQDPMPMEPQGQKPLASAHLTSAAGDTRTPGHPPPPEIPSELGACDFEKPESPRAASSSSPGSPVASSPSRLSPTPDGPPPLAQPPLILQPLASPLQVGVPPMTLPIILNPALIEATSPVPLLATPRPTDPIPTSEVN

T1 sequence (Q92538 other isoform, or with tags, fused parts or gaps): as the sequence (Q92538 other isoform, or with tags, fused parts or gaps Y876F | Y898F | Y876F | Y898F | mutant) above, with F876Y, F898Y counted along it
T3 sequence (Q92538 other isoform, or with tags, fused parts or gaps Y898F | Y898F | Y898F Y898F): as the sequence (Q92538 other isoform, or with tags, fused parts or gaps Y876F | Y898F | Y876F | Y898F | mutant) above, with F876Y counted along it
T2 sequence (Q92538 other isoform, or with tags, fused parts or gaps Y876F | Y876F | Y876F Y876F): as the sequence (Q92538 other isoform, or with tags, fused parts or gaps Y876F | Y898F | Y876F | Y898F | mutant) above, with F898Y counted along it

Binder | Arf1-GTP levels (GGA3 PBD bead pull-down of endogenous Arf1-GTP) in HEK-IS cells expressing GFP-GBF1, after imidazole activation of Src8A7F, 0 to 45 min, peak at 10 min [1] [fold] | fold increase in bound Arf1-V5 against GFP-GBF1 from SrcKM cells [2] [fold] | percent reduction of bound Arf1 against wild-type GFP-GBF1 from SrcEG cells [3] [%] | percent reduction of bound Arf1 against wild-type GFP-GBF1 from SrcEG cells [4] [%] | percent reduction of bound Arf1 against wild-type GFP-GBF1 from SrcEG cells [5] [%]
C-terminal V5-tagged Arf1 (Arf1-V5) (natural protein, Arf1 small GTPase (ADP-ribosylation factor 1); The assay was done in the presence of GDP; source: HEK293T cells expressing Arf1-V5, in lysate (pre-cleared with agarose beads); not shown: V5, C-terminal, kept) not shown | ~3 | 2 |  |  | 
Arf1-del17-His, recombinant Arf1 deleted of the first 17 amino acids (domain or fragment, Arf1 small GTPase deleted of the first 17 amino acids; The assay was done in the presence of GDP; also called Arf1-His; recombinant Arf1-del17 protein; source: bacterially produced and purified) not shown |  |  | 40 | 60 | > 70
